In PMC5333157 (2017):

B1: ERK4 (wild-type), GAL4 activation domain fusion [not stated] / DUSP2 (wild-type), GAL4 DNA-binding domain fusion [human] (parent complex)
chain 1: MAEKGDCIASVYGYDLGGRFVDFQPLGFGVNGLVLSAVDSRACRKVAVKKIALSDARSMKHALREIKIIRRLDHDNIVKVYEVLGPKGTDLQGELFKFSVAYIVQEYMETDLARLLEQGTLAEEHAKLFMYQLLRGLKYIHSANVLHRDLKPANIFISTEDLVLKIGDFGLARIVDQHYSHKGYLSEGLVTKWYRSPRLLLSPNNYTKAIDMWAAGCILAEMLTGRMLFAGAHELEQMQLILETIPVIREEDKDELLRVMPSFVSSTWEVKRPLRKLLPEVNSEAIDFLEKILTFNPMDRLTAEMGLQHPYMSPYSCPEDEPTSQHPFRIEDEIDDIVLMAANQSQLSNWDTCSSRYPVSLSSDLEWRPDRCQDASEVQRDPRAGSAPLAEDVQVDPRKDSHSSSERFLEQSHSSMERAFEADYGRSCDYKVGSPSYLDKLLWRDNKPHHYSEPKLILDLSHWKQAAGAPPTATGLADTGAREDEPASLFLEIAQWVKSTQGGPEHASPPADDPERRLSASPPGRPAPVDGGASPQFDLDVFISRALKLCTKPEDLPDNKLGDLNGACIPEHPGDLVQTEAFSKERW
chain 2: MGLEAARELECAALGTLLRDPREAERTLLLDCRPFLAFCRRHVRAARPVPWNALLRRRARGPPAAVLACLLPDRALRTRLVRGELARAVVLDEGSASVAELRPDSPAHVLLAALLHETRAGPTAVYFLRGGFDGFQGCCPDLCSEAPAPALPPTGDKTSRSDSRAPVYDQGGPVEILPYLFLGSCSHSSDLQGLQACGITAVLNVSASCPNHFEGLFRYKSIPVEDNQMVEISAWFQEAIGFIDWVKNSGGRVLVHCQAGISRSATICLAYLMQSRRVRLDEAFDFVKQRRGVISPNFSFMGQLLQFETQVLCH

Variants of: B1
Experiment: yeast two-hybrid, β-galactosidase reporter assay; triplicate; read off a plot

response | Variant
~16 | chain 1 D320N
